Measured values taken from patent US20230242635A1 (published 2023).
Residue numbers refer to the chain shown, from its start. Names may count otherwise. Values belong to the binder of their own block, whether it stands above or below them.

What was measured:
[1] = biological target: canine FcRn complex (FcRn-α subunit and β-microglobulin), biotin labeled by BirA, captured on SA chip (Example 5) (canine); assay: SPR (Biacore), biotinylated FcRn captured on SA chip, IgG flowed, pH 6, 15 C
[2] = biological target: canine FcRn complex (FcRn-α subunit and β-microglobulin) with c-terminal 6x His + BAP tag, amine-immobilized (Example 3) (canine); assay: SPR (Biacore), FcRn amine-coupled on CM5, IgG flowed, pH 6, 15 C
[3] = biological target: IL-31 (target protein of mAb1, immobilized); assay: SPR (Biacore T200), target amine-coupled on CM5, antibody flowed, 15 C, 1:1 model
[4] = biological target: IL-31 (target protein of mAb1, immobilized); assay: cell-based or functional assay
[5] = biological target: canine FcRn complex (FcRn-α subunit and β-microglobulin), biotin labeled by BirA, captured on SA chip (Example 5) (canine); assay: SPR (Biacore), biotinylated FcRn captured on SA chip, IgG flowed, pH 7.4, 15 C
[6] = biological target: T1, canine FcRn complex (FcRn-α subunit and β-microglobulin), biotin labeled by BirA, captured on SA chip … (canine, UniProt A0A8I3PFR8 25-296, biotin label by BirA enzymatic biotinylation (BAP tag)); assay: SPR (Biacore), biotinylated FcRn captured on SA chip, IgG flowed, pH 6, 15 C
[7] = biological target: T1, canine FcRn complex (FcRn-α subunit and …); assay: SPR (Biacore), biotinylated FcRn captured on SA chip, IgG flowed, pH 7.4, 15 C
[8] = biological target: T1, canine FcRn complex (FcRn-α subunit and …); assay: as above; remark: listed apart in the source
[9] = biological target: T1, canine FcRn complex (FcRn-α subunit and …); assay: SPR (Biacore), biotinylated FcRn captured on SA chip, IgG flowed, pH 6, 15 C; remark: listed apart in the source

T1 sequence (A0A8I3PFR8 entry or part of it, one chain of several): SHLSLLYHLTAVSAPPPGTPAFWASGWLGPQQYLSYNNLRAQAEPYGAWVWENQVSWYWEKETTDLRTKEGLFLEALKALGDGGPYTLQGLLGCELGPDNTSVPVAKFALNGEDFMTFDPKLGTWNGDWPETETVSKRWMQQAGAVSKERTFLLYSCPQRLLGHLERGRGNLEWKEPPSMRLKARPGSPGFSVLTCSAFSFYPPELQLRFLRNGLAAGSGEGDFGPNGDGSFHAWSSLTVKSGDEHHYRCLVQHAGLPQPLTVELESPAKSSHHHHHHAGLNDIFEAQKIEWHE

- Kd [1]: 19.9 nM
- Kd [2]: 15 to 24.4 nM
- Kd [3]: 0.483 nM
- IC50 (cell based potency assay) [4]: 1.1 nM
- Kd [5]: 18700 nM
B1: caninized anti-IL31 antibody 34D03 (mAb1), canine IgGB (65), wild-type (antibody)
heavy: EVQLVESGGDLVKPGGSLRLSCVASGFTFSNYGMSWVRQAPGKGLQWVATISYGGSYTYYPDNIKGRFTISRDNAKNTLYLQMNSLRAEDTAMYYCVRGYGYDTMDYWGQGTLVTVSSASTTAPSVFPLAPSCGSTSGSTVALACLVSGYFPEPVTVSWNSGSLTSGVHTFPSVLQSSGLYSLSSMVTVPSSRWPSETFTCNVAHPASKTKVDKPVPKRENGRVPRPPDCPKCPAPEMLGGPSVFIFPPKPKDTLLIARTPEVTCVVVDLDPEDPEVQISWFVDGKQMQTAKTQPREEQFNGTYRVVSVLPIGHQDWLKGKQFTCKVNNKALPSPIERTISKARGQAHQPSVYVLPPSREELSKNTVSLTCLIKDFFPPDIDVEWQSNGQQEPESKYRTTPPQLDEDGSYFLYSKLSVDKSRWQRGDTFICAVMHEALHNHYTQESLSHSPGK
VL: EIVMTQSPASLSLSQEEKVTITCKASQSVSFAGTGLMHWYQQKPGQAPKLLIYRASNLEAGVPSRFSGSGSGTDFSFTISSLEPEDVAVYYCQQSREYPWTFGQGTKLEIK

- Kd [6]: 118 nM
- Kd [7]: 26000 nM
B2: caninized anti-IL31 antibody 34D03 (mAb1), canine IgGB, N434G (antibody)
chain 1: B1 heavy with N440G
chain 2: B1 VL

- Kd [6]: 139 nM
- Kd [7]: 175 nM
B3: caninized anti-IL31 antibody 34D03 (mAb1), canine IgGB, N434A (antibody)
chain 1: B1 heavy with N440A
chain 2: B1 VL

- Kd [6]: 77.1 nM
- Kd [7]: 19600 nM
B4: caninized anti-IL31 antibody 34D03 (mAb1), canine IgGB, N434I (antibody)
chain 1: B1 heavy with N440I
chain 2: B1 VL

- Kd [6]: 9.11 nM
- Kd [7]: 7.86 nM
B5: caninized anti-IL31 antibody 34D03 (mAb1), canine IgGB, N434K (antibody)
chain 1: B1 heavy with N440K
chain 2: B1 VL

- Kd [6]: 30.7 nM
- Kd [7]: 33700 nM
B6: caninized anti-IL31 antibody 34D03 (mAb1), canine IgGB, N434F (antibody)
chain 1: B1 heavy with N440F
chain 2: B1 VL

- Kd [8]: 1900 nM
- Kd [9]: 2.71 nM
B7: caninized anti-IL31 antibody (mAb1), canine IgGB, N434Y (antibody)
chain 1: B1 heavy with N440Y
chain 2: B1 VL

- Kd [6]: 14.3 nM
- Kd [7]: 997 nM
B8: caninized anti-IL31 antibody 34D03 (mAb1), canine IgGB, N434L (antibody)
chain 1: B1 heavy with N440L
chain 2: B1 VL

- Kd [1]: 40 nM
B9: caninized anti-IL31 antibody 11E12 (mAb1 of Table 5), canine IgGB, WT2 (antibody, part only; not given: light chain, part only)
heavy: EVQLVQSGAEVKKPGASVKVSCKTSGYTFKYYDINWVRQAPGAGLDWMGWIFPGDGGTKYNETFKGRVTLTADTSTSTAYMELSSLRAGDIAVYYCARGGTSVIRDAMDYWGQGTLVTVSSASTTAPSVFPLAPSCGSTSGSTVALACLVSGYFPEPVTVSWNSGSLTSGVHTFPSVLQSSGLYSLSSMVTVPSSRWPSETFTCNVAHPASKTKVDKPVPKRENGRVPRPPDCPKCPAPEMLGGPSVFIFPPKPKDTLLIARTPEVTCVVVDLDPEDPEVQISWFVDGKQMQTAKTQPREEQFNGTYRVVSVLPIGHQDWLKGKQFTCKVNNKALPSPIERTISKARGQAHQPSVYVLPPSREELSKNTVSLTCLIKDFFPPDIDVEWQSNGQQEPESKYRTTPPQLDEDGSYFLYSKLSVDKSRWQRGDTFICAVMHEALHNHYTQESLSHSPGK

- Kd [1]: 1 nM
- Kd [5]: 83900 nM
B10: caninized anti-IL31 antibody 11E12 (mAb1 of Table 5), canine IgGB, N434H (antibody, part only; not given: light chain, part only)
heavy: B9 heavy with N443H

- Kd [1]: 95.5 nM
B11: caninized anti-NGF antibody ZTS-841 (mAb2 of Table 4), canine IgGA, WT (antibody, from a related filing, part only)
heavy: EVQLVESGGDLVKPGGSLRLSCVASGFTFSSHGMHWVRQSPGKGLQWVAVINSGGSSTYYTDAVKGRFTISRDNAKNTVYLQMNSLRAEDTAMYYCAKESVGGWEQLVGPHFDYWGQGTLVIVSSASTTAPSVFPLAPSCGSTSGSTVALACLVSGYFPEPVTVSWNSGSLTSGVHTFPSVLQSSGLHSLSSMVTVPSSRWPSETFTCNVVHPASNTKVDKPVFNECRCTDTPPCPVPEPLGGPSVLIFPPKPKDILRITRTPEVTCVVLDLGREDPEVQISWFVDGKEVHTAKTQSREQQFNGTYRVVSVLPIEHQDWLTGKEFKCRVNHIDLPSPIERTISKARGRAHKPSVYVLPPSPKELSSSDTVSITCLIKDFYPPDIDVEWQSNGQQEPERKHRMTPPQLDEDGSYFLYSKLSVDKSRWQQGDPFTCAVMHETLQNHYTDLSLSHSPGK
VL: QSVLTQPTSVSGSLGQRVTISCSGSTNNIGILGASWYQLFPGKAPKLLVYGNGNRPSGVPDRFSGADSGDSVTLTITGLQAEDEADYYCQSFDTTLGAHVFGGGTHLTVL

- Kd [1]: 71 nM
B12: caninized anti-NGF antibody ZTS-841 (mAb2 of Table 4), canine IgGD, WT (antibody, from a related filing, part only)
heavy: EVQLVESGGDLVKPGGSLRLSCVASGFTFSSHGMHWVRQSPGKGLQWVAVINSGGSSTYYTDAVKGRFTISRDNAKNTVYLQMNSLRAEDTAMYYCAKESVGGWEQLVGPHFDYWGQGTLVIVSSASTTAPSVFPLAPSCGSTSGSTVALACLVSGYFPEPVTVSWNSGSLTSGVHTFPSVLQSSGLYSLSSTVTVPSSRWPSETFTCNVVHPASNTKVDKPVPKESTCKCISPCPVPESLGGPSVFIFPPKPKDILRITRTPEITCVVLDLGREDPEVQISWFVDGKEVHTAKTQPREQQFNSTYRVVSVLPIEHQDWLTGKEFKCRVNHIGLPSPIERTISKARGQAHQPSVYVLPPSPKELSSSDTVTLTCLIKDFFPPEIDVEWQSNGQPEPESKYHTTAPQLDEDGSYFLYSKLSVDKSRWQQGDTFTCAVMHEALQNHYTDLSLSHSPGK
VL: B11 VL

- Kd [1]: 52 nM
B13: caninized anti-NGF antibody ZTS-841 (mAb2 of Table 4), canine IgGC, WT (antibody, from a related filing, part only)
heavy: EVQLVESGGDLVKPGGSLRLSCVASGFTFSSHGMHWVRQSPGKGLQWVAVINSGGSSTYYTDAVKGRFTISRDNAKNTVYLQMNSLRAEDTAMYYCAKESVGGWEQLVGPHFDYWGQGTLVIVSSASTTAPSVFPLAPSCGSQSGSTVALACLVSGYIPEPVTVSWNSVSLTSGVHTFPSVLQSSGLYSLSSMVTVPSSRWPSETFTCNVAHPATNTKVDKPVAKECECKCNCNNCPCPGCGLLGGPSVFIFPPKPKDILVTARTPTVTCVVVDLDPENPEVQISWFVDSKQVQTANTQPREEQSNGTYRVVSVLPIGHQDWLSGKQFKCKVNNKALPSPIEEIISKTPGQAHQPNVYVLPPSRDEMSKNTVTLTCLVKDFFPPEIDVEWQSNGQQEPESKYRMTPPQLDEDGSYFLYSKLSVDKSRWQRGDTFICAVMHEALHNHYTQISLSHSPGK
VL: B11 VL
